Test results as given in PMC3273809.
Positions count from the first letter of the chain named. Like-named read-outs stand apart in the source and are kept apart here.

Key:
Test in all cases: SPR
ClpA = molecular target: T1, ClpA (Escherichia coli, UniProt P0ABH9 1-758)
T1 sequence: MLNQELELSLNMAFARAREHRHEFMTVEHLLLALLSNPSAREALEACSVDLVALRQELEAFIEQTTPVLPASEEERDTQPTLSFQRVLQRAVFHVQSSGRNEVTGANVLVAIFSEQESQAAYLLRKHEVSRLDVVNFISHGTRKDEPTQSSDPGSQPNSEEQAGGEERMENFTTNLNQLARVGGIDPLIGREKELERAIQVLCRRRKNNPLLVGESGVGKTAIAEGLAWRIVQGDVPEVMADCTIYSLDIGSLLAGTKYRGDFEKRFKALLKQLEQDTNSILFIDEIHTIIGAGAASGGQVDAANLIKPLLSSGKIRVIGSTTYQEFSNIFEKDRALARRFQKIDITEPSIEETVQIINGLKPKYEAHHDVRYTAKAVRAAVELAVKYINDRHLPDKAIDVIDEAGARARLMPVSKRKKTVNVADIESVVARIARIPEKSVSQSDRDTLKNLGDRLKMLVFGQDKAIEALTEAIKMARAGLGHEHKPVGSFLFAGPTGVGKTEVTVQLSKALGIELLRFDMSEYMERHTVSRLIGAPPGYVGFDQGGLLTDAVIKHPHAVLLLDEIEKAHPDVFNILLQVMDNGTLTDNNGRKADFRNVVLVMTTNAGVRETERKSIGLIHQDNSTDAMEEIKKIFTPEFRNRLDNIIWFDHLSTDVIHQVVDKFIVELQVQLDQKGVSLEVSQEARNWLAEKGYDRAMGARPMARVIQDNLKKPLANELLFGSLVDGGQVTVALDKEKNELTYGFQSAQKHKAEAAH

Lon [1] = molecular target: T2, Lon (Escherichia coli, UniProt P0A9M0 1-784)
TrfA G254D/S267L = molecular target: T3, TrfA G254D/S267L (plasmid RK2, UniProt P07676 98-382, G254D;S267L)
T3 sequence: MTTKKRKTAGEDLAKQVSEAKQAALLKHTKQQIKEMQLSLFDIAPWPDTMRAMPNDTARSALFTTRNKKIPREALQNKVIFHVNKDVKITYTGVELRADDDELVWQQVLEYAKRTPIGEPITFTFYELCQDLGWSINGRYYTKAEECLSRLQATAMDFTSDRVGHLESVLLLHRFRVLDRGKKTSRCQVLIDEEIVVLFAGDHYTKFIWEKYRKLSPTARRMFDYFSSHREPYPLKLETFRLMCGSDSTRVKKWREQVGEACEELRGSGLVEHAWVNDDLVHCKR

TrfA wt (His6-TrfA-33) = molecular target: T4, TrfA wt (His6-TrfA-33) (plasmid RK2, UniProt P07676 98-382)
T4 sequence: T3 sequence with D157G, L170S

Lon [2] = molecular target: T2, Lon; remark: listed apart in the source
[3] = molecular target: Lon;TrfA P151S/G254D/S267L (Escherichia coli;plasmid RK2, UniProt P0A9M0;P07676 1-784;98-382, |P151S;G254D;S267L)

Measured: binding result

B1: frag1 (five RK2 oriV iterons, 129 bp) (dsDNA)
DNA 1: CCTGCGGTATTGACACTTGAGGGGCGCGACTACTGACAGATGAGGGGCGCGATCCTTGACACTTGAGGGGCAGAGTGATGACAGATGAGGGGCGCACCTATTGACATTTGAGGGGCTGTCCACAGGCAG
DNA 2: CTGCCTGTGGACAGCCCCTCAAATGTCAATAGGTGCGCCCCTCATCTGTCATCACTCTGCCCCTCAAGTGTCAAGGATCGCGCCCCTCATCTGTCAGTAGTCGCGCCCCTCAAGTGTCAATACCGCAGG
binds: ClpA | Lon [1] | TrfA G254D/S267L | TrfA wt (His6-TrfA-33)

B2: frag2 (pUC19 fragment, 129 bp) (dsDNA)
DNA 1: AGCTCACAATTCCACACAACATACGAGCCGGAAGCATAAAGTGTAAAGCCTGGGGTGCCTAATGAGTGAGCTAACTCACATTAATTGCGTTGCGCTCACTGCCCGCTTTCCAGTCGGGAAACCTGTCGT
DNA 2: ACGACAGGTTTCCCGACTGGAAAGCGGGCAGTGAGCGCAACGCAATTAATGTGAGTTAGCTCACTCATTAGGCACCCCAGGCTTTACACTTTATGCTTCCGGCTCGTATGTTGTGTGGAATTGTGAGCT
binds: ClpA | Lon [2] | [3]
